Experimental findings from US20130034559A1 (AstraZeneca / MedImmune, published 2013) are described below.

Experiment [1] deals with T1, B7H1_D122N (human, UniProt Q9NZQ7 19-238).
T1 construct: range 19-238; also called human B7-H1 extracellular domain mutant D122N
As to the kind of experiment: HTRF competition: untagged B7-H1 sample against HIS FLAG tagged human B7-H1 for labelled antibody. As for the experimental part: (§1) The HTRF® competition assays measured the binding of anti-B7-H1 antibody to HIS FLAG tagged B7-H1. Titration of non tagged B7-H1 samples, prepared as described above, will compete with HIS FLAG tagged B7-H1 for binding to anti-B7-H1 antibody, leading to a reduction in assay signal. […] 10 μl of B7-H1 sample was added to a 384 well low volume assay plate (Corning 3673). […] Assay plates were incubated for 4 hours at room temperature prior to reading time resolved fluorescence at 620 nm and 665 nm emission wavelengths using an EnVision plate reader (Perkin Elmer).
For orientation: TR-FRET usually uses a lanthanide donor and a delayed reading to cut background.

Experiment [2] concerns the target T2, B7H1_F19G (human, UniProt Q9NZQ7 19-238).
T2 construct: range 19-238; also called human B7-H1 extracellular domain mutant F19G
Described as above. As for the experimental part:
as §1

Experiment [3] has as its target T3, B7H1_T20A (human, UniProt Q9NZQ7 19-238).
T3 construct: range 19-238; also called human B7-H1 extracellular domain mutant T20A
Described as above. As for the experimental part: as §1

For experiment [4], the target named is T4, recombinant monomeric cynomologus B7-H1 FlagHis10 extracellular domain (cynomologus).
T4 construct: extracellular domain; also called CYNO B7H1
Put plainly: SPR (BIAcore T100), IgG captured via protein G, monomeric cynomologus B7-H1 ECD as analyte, 25 °C, 1:1 model. The procedure:
(§2) The binding affinity and kinetic parameters of anti-B7-H1 antibodies in the IgG1-TM format to monomeric human and cynomologus B7-H1 were determined by surface plasmon resonance using a BIAcore T100 instrument (BIAcore, Uppsala, Sweden). In brief, experiments were performed at 25° C. using HBS-EP buffer (10 mM HEPES, 150 mM NaCl, 3 mM EDTA, 0.05% v/v surfactant P20) as running buffer. IgGs were affinity captured on the surface of a CM5 sensor chip (BIAcore) via protein G, which was amine coupled onto the CM5 surface to achieve the density of ˜500 Response Units (RU), according to the manufacturer's instructions (BIAapplications Handbook, BIAcore). Recombinant monomeric human or cynomologus B7-H1 FlagHis₁₀ extracellular domains (ECDs) were used as analytes. […] All measurements were baseline corrected by subtracting the sensorgram obtained with the control (activated-deactivated) flow cell, as well as double referenced with blank (zero analyte concentration) injections. Data were analyzed using the T-100 BIAevaluation software package and fitted to a simple 1:1 Langmuir binding model with local Rₘₐₓ and bulk refractive index set to 0. Data were calculated from at least two independent experiments. Mass transport effects were limited by keeping the level of affinity-captured IgGs below 250 RU.
(In SPR one partner is held on a chip, and binding of the other changes the refractive index at the surface.)

For experiment [5], the target named is T5, recombinant monomeric human B7-H1 FlagHis10 extracellular domain (human, UniProt Q9NZQ7 19-238).
T5 construct: extracellular domain; also called HIS FLAG tagged human B7-H1; HIS FLAG tagged B7-H1; not shown: FlagHis10 tag
T5 sequence (Q9NZQ7 19-238): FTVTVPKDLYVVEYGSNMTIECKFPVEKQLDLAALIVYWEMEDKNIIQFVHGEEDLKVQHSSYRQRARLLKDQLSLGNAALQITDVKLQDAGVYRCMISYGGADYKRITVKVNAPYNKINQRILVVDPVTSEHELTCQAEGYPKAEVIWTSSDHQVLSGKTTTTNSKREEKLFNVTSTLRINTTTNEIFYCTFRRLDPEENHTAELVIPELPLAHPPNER
As to the kind of experiment: SPR (BIAcore T100), IgG captured via protein G, monomeric B7-H1 ECD as analyte, 25 °C, 1:1 model. The procedure:
as §2

The target of experiment [6] is T6, extracellular domain of human B7-H2 (R&D Systems, 165-B7) (human, UniProt O75144 19-256).
T6 construct: extracellular domain; Bought
T6 sequence (looked up): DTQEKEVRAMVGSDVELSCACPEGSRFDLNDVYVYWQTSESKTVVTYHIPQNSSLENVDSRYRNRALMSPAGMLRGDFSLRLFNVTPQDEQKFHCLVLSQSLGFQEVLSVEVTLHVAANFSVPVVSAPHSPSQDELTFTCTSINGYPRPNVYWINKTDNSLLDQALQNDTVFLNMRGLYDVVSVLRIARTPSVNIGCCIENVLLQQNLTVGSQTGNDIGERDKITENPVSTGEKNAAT
As to the kind of experiment: ELISA, biotinylated IgG1-TM on coated ECD. The procedure:
(§3) ELISAs were performed to determine the cross-reactivity of the anti-B7-H1 IgG1-TM antibodies for other immune co-modulatory molecules. […] Murine cross reactivity was also investigated by coating the ECD of murine B7-H1 (R&D Systems, 1019-B7). Biotinylated anti-B7-H1 IgG1-TM diluted at 100 nM in PBS containing 3% dried milk powder, were incubated at room temperature for 2 h to allow binding. Bound biotinylated IgGs were detected with europium N1-labelled streptavidin (Perkin Elmer, 1244-360) at 0.2 ug/mL. […] Primary antibodies were incubated at 5 ug/mL in PBS containing 3% dried milk powder for 2 h at room temperature. Detection was carried out by incubating the secondary antibody anti-mouse IgG Peroxidase conjugate (Sigma, A2554) or anti-rat IgG Peroxidase conjugate (Sigma, A5795) diluted 1:5000 in PBS containing 3% dried milk powder for 1 h at room temperature and subsequent addition of TMB (Sigma, T0440). […] Non-specific binding was determined using wells coated with the IgG1 isotype control at 5 ug/mL. Cross reactivities were calculated at a percent of the specific binding to the antigen relative to human B7-H1.
A general note: ELISA stands for enzyme-linked immunosorbent assay.

Experiment [7] deals with T7, extracellular domain of human PD-L2 (R&D Systems, 1224-PL) (human, UniProt Q9BQ51 20-220).
T7 construct: extracellular domain; Bought
T7 sequence (looked up): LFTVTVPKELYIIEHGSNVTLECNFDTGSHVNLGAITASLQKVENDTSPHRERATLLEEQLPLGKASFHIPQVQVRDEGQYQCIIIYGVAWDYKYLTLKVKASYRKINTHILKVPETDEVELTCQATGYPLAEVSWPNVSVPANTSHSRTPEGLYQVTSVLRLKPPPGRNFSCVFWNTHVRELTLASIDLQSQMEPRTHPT
Put plainly: ELISA, biotinylated IgG1-TM on coated ECD. The procedure: as §3

Experiment [8] addresses T8, extracellular domain of human CD28 (R&D Systems, 342-CD) (human, UniProt P10747 19-152).
T8 construct: extracellular domain; Bought
As to the kind of experiment: ELISA, biotinylated IgG1-TM on coated ECD. The procedure:
as §3

In experiment [9] the target is T9, extracellular domain of human CTLA-4 (R&D Systems, 325-CT) (human, UniProt P16410 36-161).
T9 construct: extracellular domain; Bought
T9 sequence (looked up): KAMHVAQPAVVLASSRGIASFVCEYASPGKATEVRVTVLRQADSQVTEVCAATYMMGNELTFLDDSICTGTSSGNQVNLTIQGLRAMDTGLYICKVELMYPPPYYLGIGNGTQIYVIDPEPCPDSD
As to the kind of experiment: ELISA, biotinylated IgG1-TM on coated ECD. The procedure: as §3

The target of experiment [10] is T10, human PD-1/Fc protein (R&D Systems, catalog #1086-PD) (human, UniProt Q15116 25-170).
T10 construct: extracellular domain; Bought; not shown: Fc portion
T10 sequence (Q15116 25-170): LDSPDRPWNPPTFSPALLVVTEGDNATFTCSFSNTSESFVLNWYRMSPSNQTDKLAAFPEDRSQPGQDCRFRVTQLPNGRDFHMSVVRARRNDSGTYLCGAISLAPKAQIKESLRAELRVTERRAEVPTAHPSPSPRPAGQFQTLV
Put plainly: ELISA, biotinylated IgG1-TM on coated ECD. As for the experimental part: as §3

T2 sequence (Q9NZQ7 19-238 F19G limits assumed): as the sequence (Q9NZQ7 19-238) above, with F1G counted along it
T3 sequence (Q9NZQ7 19-238 T20A limits assumed): as the sequence (Q9NZQ7 19-238) above, with T2A counted along it
T8 sequence (P10747 19-152): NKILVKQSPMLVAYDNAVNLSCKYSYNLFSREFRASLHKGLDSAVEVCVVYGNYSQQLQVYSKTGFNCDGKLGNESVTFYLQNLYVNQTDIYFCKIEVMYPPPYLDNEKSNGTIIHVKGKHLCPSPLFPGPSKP
T1 sequence (Q9NZQ7 19-238 D122N limits assumed): as the sequence (Q9NZQ7 19-238) above, with D104N counted along it

B1: 2.7A4OPT (antibody, V domains shown)
VH: EVQLVESGGGLVKPGGSLRLSCAASGFTFSTYSMNWVRQAPGKGLEWVSSISSSGDYIYYADSVKGRFTISRDNAKNSLYLQMNSLRAEDTAVYYCARDLVTSMVAFDYWGQGTLVTVSS
VL: SYELTQPPSVSVSPGQTARITCSGDALPQKYVFWYQQKSGQAPVLVIYEDSKRPSGIPERFSGSSSGTMATLTISGAQVEDEADYYCYSTDRSGNHRVFGGGTKLTVL
notes: Germlined variable domains; human IgG1-TM (L234F, L235E, P331S), lambda; also called 2.7A4OPT IgG1-TM
Consider B1, for which the binding result is listed as “no binding” in experiment [1]; “no binding” in experiment [2]; “no binding” in [3]; “no binding (tested: 100 nM)” in experiment [6]; “no binding (tested: 100 nM)” in experiment [7]; “no binding (tested: 100 nM)” in experiment [8]. For the same molecule, the binding result in experiment [9] and in [10] was “no binding (tested: 100 nM)” in each case. For the same molecule, the Kd came out at 0.835 nM in [4] and 1 nM in experiment [5]. Besides, the koff in experiment [4] is 0.0011 s⁻¹; in experiment [5] it was 0.0012 s⁻¹. The on-rate constant (kon) in [4] came out at 1.31e+06 M⁻¹ s⁻¹; in experiment [5] it was 1.24e+06 M⁻¹ s⁻¹.

By Kd is commonly meant the equilibrium constant for the complex coming apart. The term koff denotes the rate constant with which the complex falls apart. A word on the kon: it is the rate constant with which the complex forms.
